Measured values published in article PMC3690454, “14-3-3 Proteins Interact with a Hybrid Prenyl-Phosphorylation Motif to Inhibit G Proteins” (Cell, 2013).
Square brackets hold non-standard residues; d marks the D form. Ends that are not written are not given here. Peptide text beside a SMILES is read from it. * marks the point of attachment. Geranylgeranyl = CC(C)=CCC/C(C)=C/CC/C(C)=C/CC/C(C)=C/C*; Biotin = O=C1N[C@H]2[C@H](CS[C@H]2CCCCC(=O)*)N1; pS = N[C@@H](COP(=O)(O)O)C(=O)O; Ahx = NCCCCCC(=O)O

Legend:
14-3-3ζ [1] = biological target: T1, 14-3-3ζ (Homo sapiens, UniProt P63104); test: Biolayer interferometry (Octet RED96), immobilised biotinylated peptides, 14-3-3ζ in solution; format: binding; details: determined by steady-state analysis, typical experiment (n ≥ 3)
T1 construct: hexa-His; made in house; host or cells: E. coli BL21(DE3) Star
T1 sequence (P63104 1-245): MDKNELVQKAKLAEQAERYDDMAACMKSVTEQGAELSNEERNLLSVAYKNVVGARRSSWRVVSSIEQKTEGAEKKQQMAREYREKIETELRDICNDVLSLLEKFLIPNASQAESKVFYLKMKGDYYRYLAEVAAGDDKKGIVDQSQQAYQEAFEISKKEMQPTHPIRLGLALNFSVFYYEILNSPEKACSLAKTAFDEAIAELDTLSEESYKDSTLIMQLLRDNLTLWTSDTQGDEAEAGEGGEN
Method: Biolayer interferometry was carried out using an Octet RED96 instrument (ForteBio). Biotinylated peptides were immobilized on streptavadin-coated biosensors (ForteBio) at a concentration of 1 μg/ml in BI buffer (25 mM Tris, 150 mM NaCl, 0.1% Tween-20), for 300 s. The immobilization typically reached a response level of 2 nm. Association and dissociation curves were obtained through addition of a dilution series of 14-3-3ζ ([…]) for 300 s followed by dissociation in BI buffer for 300 s using the Octet acquisition software. The binding data were fitted using the Octet analysis software.

[2] = tested on: GST-14-3-3β / Rnd3 interaction; test: Peptide competition in GST-14-3-3β pull-down of FLAG-Rnd3 from COS7 lysates; format: binding; details: peptide 10 μg/ml preincubated 15 min at 4°C with GST-14-3-3β; immunoblot
Method: Recombinant GST-14-3-3β was expressed and purified from E. coli (Extended Experimental Procedures). FLAG-Rnd3-transfected COS7 cells were lysed in LB buffer. After removal of insoluble material, precleared cell lysates were incubated at 4°C for 2 hr with the recombinant GST or GST-14-3-3β protein (5 μg) on glutathione beads (Amersham Biosciences). Beads were washed with LB buffer before eluting the proteins in LSB. The proteins were resolved by SDS-PAGE and analyzed by immunoblotting.
For peptide competition experiments (Table S3; Extended Experimental Procedures), peptides (10 μg/ml) were preincubated for 15 min at 4°C with the GST-14-3-3β prior to the addition of precleared cell lysates.

14-3-3ζ [3] = biological target: T1, 14-3-3ζ; test: Isothermal titration calorimetry of Rnd3 C-terminal peptides with 14-3-3ζ; format: binding; details: ITC
Method: ITC measurements were carried out using a VP-ITC200 instrument (GE Healthcare). The 14-3-3ζ domain (see Extended Experimental Procedures) was used at 50–60 μM in ITC buffer (50 mM Tris [pH 7.5]), 100 mM NaCl, 1 mM TCEP). Rnd3 C-terminal peptides were solubilized in ITC buffer and used at 500–600 μM. Titrations were carried out at 25°C in triplicate. Each titration was fitted to a simple one-site binding model using the Origin software provided with the instrument. Titrations with nonbinding peptides were carried out at 15°C and 25°C.
GST-14-3-3β protein was expressed as previously reported ([Yaffe et al., 1997]). A hexa-His-tagged version of 14-3-3ζ was expressed and purified essentially as previously reported ([Kostelecky et al., 2009]). In brief, the E. coli strain BL21(DE3) Star (Invitrogen) was transformed with the expression plasmid that was maintained by 34 μg/ml chloramphenicol. E. coli cells were grown to OD600nm of 0.7-0.8 in TB medium at 37°C and protein expression induced by 1 mM IPTG for 5 hr at 30°C. Pelleted cells were suspended in buffer A (25 mM Tris [pH 7.5], 100 mM NaCl, 1 mM EDTA, and 1 mM DTT) and disrupted by sonication. Insoluble material was cleared by high-speed centrifugation and the cleared lysate applied to a 5 ml HisTrap column using an AKTA system (GE Healthcare). The 14-3-3ζ protein was eluted with a linear gradient (0–500 mM) of Imidazole in buffer A. Finally, the protein was subjected to size-exclusion chromatography using a High-Load S200 pg column. As previously described, 14-3-3ζ eluted as a dimer with a molecular weight of ∼60 kDa. The final yield of 14-3-3ζ was 30–40 mg per liter of TB medium.

pS210-Rnd3 = pS210-Rnd3 immunoblot in treated COS7 cells; format: cell-based; details: 2 hr, PMA 100 nM, BIM1 1 μM
Method: COS7 cells grown in Dulbecco’s modified Eagle’s medium (DMEM) containing 10% bovine fetal calf serum and penicillin/streptomycin (Invitrogen) were electroporated with 5 μg DNA at 250 V and 960 μF using 0.4 cm Gene Pulser Cuvettes (Bio-Rad) in 250 μl of electroporation buffer (120 mM KCl, 10 mM K2PO4/KH2PO4 [pH 7.6], 25 mM HEPES [pH 7.6], 2 mM MgCl2, and 0.5% Ficoll). Cells were analyzed 24 hr after transfection. NIH 3T3 cells grown in DMEM containing 10% donor bovine serum and penicillin/streptomycin were transfected using FuGENE 6 (Roche) according to the manufacturer’s instructions. Where indicated, cells were treated for 20 min with 100 nM calyculin A (Alexis); for 2 hr with 100 nM staurosporine (Calbiochem), 20 μM H-1152 (Calbiochem), 1 μM bisindolylmaleimide I (BIM1, Calbiochem), or 100 nM phorbol-12-myristate-13-acetate (PMA, Cell Signaling Technology); and for 16 hr with 10 μM L-744,832 farnesyltransferase inhibitor (FTI, Calbiochem).
Rabbit polyclonal antisera were raised against phosphorylated Rnd3-S210 peptide (KNVKRNKpSQRA) by Eurogentec, Seraing, Belgium. Nonspecific antibodies were removed through a nonphosphopeptide (KNVKRNKSQRA) column followed by a specific phosphoenrichment of the antibodies by affinity purification using a phosphopeptide column. […]

[4] = biological target: biotinylated Rnd3 C-terminal peptide, phosphorylated on S240 and geranylgeranylated (+P+GG) (human); test: BLI; Octet RED96; biotinylated peptides immobilised on streptavidin biosensors; dilution series of 14-3-3ζ; 25 mM Tris, 150 mM NaCl, 0.1% Tween-20; KD of +P-F by steady-state analysis
[5] = biological target: biotinylated Rnd3 C-terminal peptide, phosphorylated on S240 and geranylated (+P+G) (human); test: as above
[6] = biological target: biotinylated Rnd3 C-terminal peptide, phosphorylated on S240 and isoprenylated (+P+Ipr) (human); test: as above
[7] = biological target: biotinylated Rnd3 C-terminal peptide, phosphorylated on S240 and farnesylated on C241 (+P+F) (human); test: as above
[8] = biological target: biotinylated Rnd3 C-terminal peptide, phosphorylated on S240 (+P−F) (human); test: as above
hexa-His-tagged 14-3-3ζ [9] = biological target: T2, hexa-His-tagged 14-3-3ζ (UniProt P63104 1-245); test: as above; details: both partners purified
T2 construct: 14-3-3ζ, expressed essentially as in Kostelecky et al., 2009; eluted as a dimer of ~60 kDa; also called recombinant 14-3-3ζ; 14-3-3ζ domain; source: E. coli BL21(DE3) Star, purified (HisTrap, size-exclusion chromatography)
T2 sequence: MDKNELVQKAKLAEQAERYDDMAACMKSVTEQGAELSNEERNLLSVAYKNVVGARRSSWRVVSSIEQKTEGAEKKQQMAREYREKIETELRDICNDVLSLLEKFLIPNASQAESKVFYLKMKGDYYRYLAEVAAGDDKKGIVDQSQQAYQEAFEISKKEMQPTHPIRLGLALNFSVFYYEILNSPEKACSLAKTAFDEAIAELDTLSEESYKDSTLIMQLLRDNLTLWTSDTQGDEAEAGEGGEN

hexa-His-tagged 14-3-3ζ [10] = biological target: T3, hexa-His-tagged 14-3-3ζ (UniProt P63104 1-245); test: BLI; Octet RED96; biotinylated peptides immobilised on streptavidin-coated biosensors (1 μg/ml, 300 s); dilution series of 14-3-3ζ for 300 s, dissociation 300 s; BI buffer 25 mM Tris, 150 mM NaCl, 0.1% Tween-20; data of a typical experiment (n ≥ 3); details: both partners purified
T3 construct: 14-3-3 protein zeta; expressed and purified essentially as in Kostelecky et al., 2009; eluted as a dimer of ~60 kDa; the ITC methods call it 'the 14-3-3ζ domain'; source: E. coli BL21(DE3) Star, purified (HisTrap, size-exclusion chromatography)
T3 sequence: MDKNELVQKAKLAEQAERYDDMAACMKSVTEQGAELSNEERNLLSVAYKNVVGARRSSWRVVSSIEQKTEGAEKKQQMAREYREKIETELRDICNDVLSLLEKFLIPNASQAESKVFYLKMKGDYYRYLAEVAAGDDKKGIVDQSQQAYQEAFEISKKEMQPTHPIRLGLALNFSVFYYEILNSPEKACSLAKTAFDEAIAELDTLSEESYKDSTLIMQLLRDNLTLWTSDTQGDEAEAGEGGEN

CC(C)C[C@H](NC(=O)[C@@H](N)CC(=O)O)C(=O)N[C@@H](CCCNC(=N)N)C(=O)N[C@@H](CCCCN)C(=O)N[C@@H](CC(=O)O)C(=O)N[C@@H](CCCCN)C(=O)N[C@@H](C)C(=O)N[C@@H](CCCCN)C(=O)N[C@@H](COP(=O)(O)O)C(=O)N[C@@H](CS)C(=O)O [+P-F] (H-DLRKDKAK[pS]C-OH)
Kd (14-3-3ζ [1]): 1300 nM | inhibition of the interaction between GST-14-3-3β and Rnd3 [2]: only slightly inhibited | Kd (14-3-3ζ [3]; 25°C, 50 mM Tris pH 7.5, 100 mM NaCl, 1 mM TCEP, one-site model, mean ± SD, n = 3): 1060 ± 40 nM | Stoichiometry (N) (14-3-3ζ [3]; 25°C, 14-3-3ζ 50–60 μM, peptide 500–600 μM, 50 mM Tris pH 7.5, 100 mM NaCl, 1 mM TCEP, one-site model, mean ± SD, n = 3): 0.89 ± 0.017 | TΔS (14-3-3ζ [3]; 25°C, mean ± SD, n = 3): 2.469 ± 0.231 kcal/mol | ΔG (14-3-3ζ [3]; 25°C, mean ± SD, n = 3): -8.152 ± 0.027 kcal/mol | ΔH (14-3-3ζ [3]; 25°C, mean ± SD, n = 3): -5.683 ± 0.204 kcal/mol | N (printed in Figure 5C) (14-3-3ζ [3]; fitted curve of Figure 5C): 0.89

CN(C)CCCn1cc(C2=C(c3c[nH]c4ccccc34)C(=O)NC2=O)c2ccccc21 [BIM1, bisindolylmaleimide I]
effect on pS210-Rnd3 (pS210-Rnd3): reduced

CCCCCCCCCCCCCC(=O)O[C@@H]1[C@@H](C)[C@@]2(O)[C@@H](C=C(CO)C[C@]3(O)C(=O)C(C)=C[C@@H]23)[C@@H]2C(C)(C)[C@]12OC(C)=O [PMA, phorbol-12-myristate-13-acetate]
effect on pS210-Rnd3 (pS210-Rnd3): increase

hexa-His-tagged 14-3-3ζ (from UniProt P63104 1-245) (natural protein)
Kd [4]: 23.2 nM | koff [4]: 0.021 s⁻¹ | kon [4]: 890000 M⁻¹ s⁻¹ | Kd [5]: 56.5 nM | koff [5]: 0.032 s⁻¹ | kon [5]: 570000 M⁻¹ s⁻¹ | Kd [6]: 556 nM | koff [6]: 0.13 s⁻¹ | kon [6]: 240000 M⁻¹ s⁻¹ | Kd [7]: 32.4 nM | koff [7]: 0.028 s⁻¹ | kon [7]: 860000 M⁻¹ s⁻¹ | Kd [8]: 1300 nM

B1: biotinylated Rap1A C-terminal peptide, phosphorylated and geranylgeranylated (peptide)
peptide: {Biotin-Ahx}-EKKKPKKK[pS]C(Geranylgeranyl)
notes: C terminus of Rap1A up to the prenylated C181; also called Rap1A peptide; source: synthetic peptide
Kd (hexa-His-tagged 14-3-3ζ [9]): ~25 nM

B2: Rap1A C-terminal peptide, phosphorylated, not geranylgeranylated (biotinylated) (peptide)
peptide: EKKKPKKK[pS]C
modifications: not fully specified (N-terminus); also: biotinylated
notes: Rap1A C-terminal peptide as Dm2 but without the geranylgeranyl modification; also called Rap1A+P-GG; nonmodified phosphopeptide; source: synthetic peptide
Kd (hexa-His-tagged 14-3-3ζ [10]): > 1000 nM
